Measurements reported in patent publication US20110230406A1 (ADVANCED TECHNOLOGIES AND REGENERATIVE MEDICINE, published 2011).
No end group written: not given here.

Columns and labels:
human serum albumin = molecular target: T1, human serum albumin (human, UniProt P02768 25-609); test: phage ELISA, HSA-coated wells, HRP anti-M13 antibody, luminescence
T1 construct: Cross-reactivity control coated at 5 micrograms/mL; also called HSA
Protocol: (§1) 96-well black ELISA plates were coated with streptavidin (Rows A through D), hIgG (Rows E and F) and human serum albumin (Rows G and H), at a concentration of 5 micrograms/mL in PBS. Plates were incubated overnight at 4° C. Plates were washed 3 times with TBST using a plate washer. To the streptavidin-coated wells in rows C and D, 100 microliters of a 4 micrograms/mL solution of biotinylated-BMP-2 (R&D Systems, Minneapolis, Minn., Item number 355-BM/CF), was introduced and allowed to sit at room temperature for 30 minutes. To all other wells, 100 microliters of PBS was introduced. The plates were again washed 3 times with TBST using the plate washer. The wells were then blocked with 250 microliters of a 3% dehydrated milk suspension in TBST and allowed to sit at room temperature for a minimum of 1 hour. Using phage concentrations determined by the phage titrations, dilutions of the phage stock solutions were performed in a separate 96-well plate to result in phage concentrations of 10¹⁰, 10⁹, 10⁸, 10⁷, 10⁶ and 10⁵ phage/well. After blocking, the ELISA plate was washed 3 times with TBST and 100 microliters of the phage dilutions were introduced to the respective ELISA plates and allowed to sit at room temperature for a minimum of 1 hour. The ELISA plate was again washed 3 times with TBST using the plate washer and 100 microliters of an HRP-conjugated Anti-M13 Phage Mab (1:5000 dilution in PBS) was introduced to each well. The plates were allowed to sit at room temperature for 1 hour after which time the plates were washed 3 times with TBST. Next, a POD HRP-substrate was introduced to each well. The luminescence was read using a luminometer set with a gain of 150.

[1] = molecular target: T2, biotinylated BMP-2 (R&D Systems, Item number 355-BM/CF) (human, UniProt P12643 283-396, biotinylated (sites not given)); test: phage ELISA, biotinylated BMP-2 captured on streptavidin-coated wells, HRP anti-M13 antibody, luminescence
T2 construct: Bought protein, biotinylated, captured on streptavidin plates (phage ELISA) or streptavidin donor beads (ALPHA); also called bone morphogenic protein-2

[2] = molecular target: T2, biotinylated BMP-2 (R&D Systems, Item …); test: mutant phage ELISA titration on BMP-2 by the procedure of Example 3
Protocol: as §1, with “To” for “96-well black ELISA plates were coated with streptavidin (Rows A through D), hIgG (Rows E and F) and human serum albumin (Rows G and H), at a concentration of 5 micrograms/mL in PBS. Plates were incubated overnight at 4° C. Plates were washed 3 times with TBST using a plate washer. To the streptavidin-coated wells in rows C and D, 100 microliters of a 4 micrograms/mL solution of biotinylated-BMP-2 (R&D Systems, Minneapolis, Minn., Item number 355-BM/CF), was introduced and allowed to sit at room temperature for 30 minutes. To”
The respective custom oligonucleotide was obtained from Integrated DNA Technologies. The oligonucletides were inserted into the pIX gene using standard protocols. First, the oligonucletides were phosphorylated using T4 polynucleotide kinase. Next, the phosphorylated oligonucletides were annealed to the ssDNA template. Using the Kunkel method, the annealed DNA was ligated using T4 DNA ligase and T7 DNA polymerase. The resultant DNA was isolated using isopropanol precipitation and a gel was run to confirm the reaction. Lastly, electro-competent E. coli cells were transformed with the purified DNA and were plated out onto 2xYT/Tet/Xgal agar plates and allowed to grow overnight to isolate single colonies. An aliquot of the transformed cells was allowed to grow overnight at 37° C. while shaking in 50 mL 2xYT/tet media. The phage were then PEG precipitated following the procedure in Example 1. A phage titration was performed to determine the concentration of phage for the ELISA assay as described in Example 2. ELISA assays were performed following the procedure in Example 3.

[3] = molecular target: T2, biotinylated BMP-2 (R&D Systems, Item …); test: phage ELISA titration, biotinylated BMP-2 captured on streptavidin-coated wells, HRP anti-M13 antibody, luminescence
Protocol: as §1

T2 sequence (P12643 283-396 limits assumed): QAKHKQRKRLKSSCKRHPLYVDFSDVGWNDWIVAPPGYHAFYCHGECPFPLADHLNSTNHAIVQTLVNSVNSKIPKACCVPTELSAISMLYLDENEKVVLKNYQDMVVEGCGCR

B1: phage displaying the peptide of SEQ ID NO: 13 on the pIX minor coat protein (peptide)
peptide: AGSTCIPSMTPLCPS
modifications: cysteine pairing not given here; also: displayed on phage pIX minor coat protein
notes: not shown: pIX minor coat protein of the phage that carries the peptide
binding result (human serum albumin): no binding (tested: 10^9 phage/mL) | binding result [1]: binds

B2: phage displaying the peptide of SEQ ID NO: 22 on the pIX minor coat protein (peptide)
peptide: AGRSCYREPSTMLYACTA
modifications: cysteine pairing not given here; also: displayed on phage pIX minor coat protein
notes: as for B1
binding result (human serum albumin): no binding (tested: 10^9 phage/mL) | binding result [1]: binds

AGYTSFALSSSAESTLP [SEQ ID NO: 26]
binding result [2]: no binding (tested: 1.00E+10 phage/well)

AGRDSFNLLTSSPLSSS [SEQ ID NO: 32]
binding result [2]: binds

B3: phage displaying the peptide of SEQ ID NO: 8 on the pIX minor coat protein (peptide)
peptide: AGSWCTHPAIGCLS
modifications: cysteine pairing not given here; also: displayed on phage pIX minor coat protein
notes: as for B1
binding result (human serum albumin): no binding (tested: 10^9 phage/mL) | binding result [1]: binds

B4: phage displaying the peptide of SEQ ID NO: 2 on the pIX minor coat protein (peptide)
peptide: AGPPGPYIAASAFLALK
modifications: also: displayed on phage pIX minor coat protein, junction not given here
notes: as for B1
binding result (human serum albumin): no binding (tested: 10^9 phage/mL) | binding result [1]: binds

B5: phage displaying the peptide of SEQ ID NO: 21 on the pIX minor coat protein (peptide)
peptide: AGIRCPVDAIGLTANCSY
modifications: cysteine pairing not given here; also: displayed on phage pIX minor coat protein
notes: as for B1
binding result (human serum albumin): no binding (tested: 10^9 phage/mL) | binding result [1]: binds

AGRDSFNLLTSSSSPST [SEQ ID NO: 31]
binding result [2]: binds

B6: phage displaying the peptide of SEQ ID NO: 15 on the pIX minor coat protein (peptide)
peptide: AGSVCLAQYSATPLCPH
modifications: cysteine pairing not given here; also: displayed on phage pIX minor coat protein
notes: as for B1
binding result (human serum albumin): no binding (tested: 10^9 phage/mL) | binding result [1]: binds

B7: phage displaying the peptide of SEQ ID NO: 10 on the pIX minor coat protein (peptide)
peptide: AGLQCSPPLPLYCEP
modifications: cysteine pairing not given here; also: displayed on phage pIX minor coat protein
notes: as for B1
binding result (human serum albumin): no binding (tested: 10^9 phage/mL) | binding result [1]: binds

B8: phage displaying the peptide of SEQ ID NO: 5 on the pIX minor coat protein (peptide)
peptide: AGYRRPIQPGPEAVSLL
modifications: also: displayed on phage pIX minor coat protein, junction not given here
notes: as for B1
binding result (human serum albumin): no binding (tested: 10^9 phage/mL) | binding result [1]: binds

B9: phage displaying the peptide of SEQ ID NO: 12 on the pIX minor coat protein (peptide)
peptide: AGASCSPGLHPLCPG
modifications: cysteine pairing not given here; also: displayed on phage pIX minor coat protein
notes: as for B1
binding result (human serum albumin): no binding (tested: 10^9 phage/mL) | binding result [1]: binds

B10: phage displaying the peptide of SEQ ID NO: 1 on the pIX minor coat protein (peptide)
peptide: AGLPLQSMSRLSYDSLS
modifications: also: displayed on phage pIX minor coat protein, junction not given here
notes: as for B1
binding result (human serum albumin): no binding (tested: 10^9 phage/mL) | binding result [1]: binds

B11: phage displaying the peptide of SEQ ID NO: 11 on the pIX minor coat protein (peptide)
peptide: AGPRCPPMHFSVCLS
modifications: cysteine pairing not given here; also: displayed on phage pIX minor coat protein
notes: as for B1
binding result (human serum albumin): no binding (tested: 10^9 phage/mL) | binding result [1]: binds

B12: phage displaying the peptide of SEQ ID NO: 6 on the pIX minor coat protein (peptide)
peptide: AGRDSFNLLTSSPLPST
modifications: also: displayed on phage pIX minor coat protein, junction not given here
notes: as for B1
binding result (human serum albumin): no binding (tested: 10^9 phage/mL)

B13: phage displaying the peptide of SEQ ID NO: 17 on the pIX minor coat protein (peptide)
peptide: AGAHCLRDHMGLTSCIP
modifications: cysteine pairing not given here; also: displayed on phage pIX minor coat protein
notes: as for B1
binding result (human serum albumin): no binding (tested: 10^9 phage/mL) | binding result [1]: binds

AGRDSFNLSSSSPLPST [SEQ ID NO: 30]
binding result [2]: no binding (tested: 1.00E+10 phage/well)

B14: phage displaying the peptide of SEQ ID NO: 18 on the pIX minor coat protein (peptide)
peptide: AGRLCHATVDGVAVGCLT
modifications: cysteine pairing not given here; also: displayed on phage pIX minor coat protein
notes: as for B1
binding result (human serum albumin): no binding (tested: 10^9 phage/mL) | binding result [1]: binds

B15: phage displaying the peptide of SEQ ID NO: 9 on the pIX minor coat protein (peptide)
peptide: AGSPCSPGQLPLCPA
modifications: cysteine pairing not given here; also: displayed on phage pIX minor coat protein
notes: as for B1
binding result (human serum albumin): no binding (tested: 10^9 phage/mL) | binding result [1]: binds

B16: phage displaying the peptide of SEQ ID NO: 19 on the pIX minor coat protein (peptide)
peptide: AGTVCPPDLTGLTAACYY
modifications: cysteine pairing not given here; also: displayed on phage pIX minor coat protein
notes: as for B1
binding result (human serum albumin): no binding (tested: 10^9 phage/mL) | binding result [1]: binds

B17: phage displaying the peptide of SEQ ID NO: 14 on the pIX minor coat protein (peptide)
peptide: AGRECLPQFGLPLCPD
modifications: cysteine pairing not given here; also: displayed on phage pIX minor coat protein
notes: as for B1
binding result (human serum albumin): no binding (tested: 10^9 phage/mL) | binding result [1]: binds

B18: phage displaying the peptide of SEQ ID NO: 7 on the pIX minor coat protein (peptide)
peptide: AGYRCSELPLYCST
modifications: cysteine pairing not given here; also: displayed on phage pIX minor coat protein
notes: as for B1
binding result [3]: binds

B19: phage displaying the peptide of SEQ ID NO: 20 on the pIX minor coat protein (peptide)
peptide: AGTLCGVDDYTGLTGCLA
modifications: cysteine pairing not given here; also: displayed on phage pIX minor coat protein
notes: as for B1
binding result (human serum albumin): no binding (tested: 10^9 phage/mL) | binding result [1]: binds

B20: phage displaying the peptide of SEQ ID NO: 16 on the pIX minor coat protein (peptide)
peptide: AGPDCRLSPLQPAVCVW
modifications: cysteine pairing not given here; also: displayed on phage pIX minor coat protein
notes: as for B1
binding result (human serum albumin): no binding (tested: 10^9 phage/mL) | binding result [1]: binds
